Target: T1, human cdc2 (p34^cdc2, endogenous, HeLa cells) (human, UniProt P06493 1-297)
T1 construct: On p13 beads it is present as cdc2/cyclin B; also called p34^cdc2 kinase
Assay: precipitation on p13 beads from HeLa lysate

T1 sequence (P06493 whole entry): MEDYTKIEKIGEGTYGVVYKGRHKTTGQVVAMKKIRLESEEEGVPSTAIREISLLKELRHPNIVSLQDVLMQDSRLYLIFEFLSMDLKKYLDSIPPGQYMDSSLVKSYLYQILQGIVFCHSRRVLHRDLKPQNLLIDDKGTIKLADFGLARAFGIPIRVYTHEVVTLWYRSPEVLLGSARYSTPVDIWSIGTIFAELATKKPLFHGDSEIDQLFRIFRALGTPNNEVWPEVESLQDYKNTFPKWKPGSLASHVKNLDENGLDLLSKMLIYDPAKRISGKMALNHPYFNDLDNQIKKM

- binding result: binds
B1: p13 protein encoded by the suc1 gene (other, fission yeast, UniProt P08463 1-113, looked up)
chain: MSKSGVPRLLTASERERLEPFIDQIHYSPRYADDEYEYRHVMLPKAMLKAIPTDYFNPETGTLRILQEEEWRGLGITQSLGWEMYEVHVPEPHILLFKREKDYQMKFSQQRGG
notes: also called p13-Suc1; p13 (Sucl)

Source: patent publication US7005258 (NATIONAL INSTITUTES OF HEALTH, dated 2006)
